US20020086983A1 (THOMAS JEFFERSON UNIVERSITY, published 2002)
Values belong to the binder of their own block, whether it stands above or below them.

What was measured:
[1] = biological target: LexA-FLAME-1-FDH (residues 1-160) (human, UniProt O15519 1-160); experiment: yeast two-hybrid assay
T7-FLAME-2 = biological target: T1, T7-FLAME-2 (Homo sapiens (Human), UniProt O75618 1-318); experiment: co-immunoprecipitation from transfected 293T cells with Flag-tagged Fas, with or without T7-FADD
T1 sequence: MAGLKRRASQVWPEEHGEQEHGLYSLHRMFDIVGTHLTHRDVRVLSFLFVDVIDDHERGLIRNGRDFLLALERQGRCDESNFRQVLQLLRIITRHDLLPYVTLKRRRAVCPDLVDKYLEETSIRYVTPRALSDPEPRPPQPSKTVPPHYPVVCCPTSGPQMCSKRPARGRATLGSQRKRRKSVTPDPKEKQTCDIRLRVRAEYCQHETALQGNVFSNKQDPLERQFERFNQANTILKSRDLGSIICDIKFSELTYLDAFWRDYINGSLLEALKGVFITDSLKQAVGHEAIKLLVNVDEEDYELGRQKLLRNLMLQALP
Method: After 34-36 h, extracts were prepared and immunoprecipitated with a monoclonal antibody to the Flag-epitope. […] Cells were lysed in a lysis buffer (50 mM Tris, pH 7.6, 150 mM NaCl, 0.1 NP-40) and incubated with anti Flag-M5 monoclonal antibody (IBI Kodak). The immune complexes were precipitated with protein-A/G-Sepharose, washed and then eluted by boiling in SDS-sample buffer. The eluted proteins were resolved by SDS-PAGE and detected by Western analysis with a HRP-conjugated T7-antibody (Novagen). The samples were analyzed by SDS-PAGE and Western blotted with a horseradish peroxidase (HRP)-conjugated T7-antibody. All extracts were immunoblotted with anti-Flag and anti-T7 to verify expression of the encoded proteins.

binding result [1]: binds
B1: B42-FADD-DED (murine FADD-DED, residues 1-78) (other, UniProt Q61160 1-78, looked up, not shown: large carriers)
chain: MDPFLVLLHSLSGSLSGNDLMELKFLCRERVSKRKLERVQSGLDLFTVLLEQNDLERGHTGLLRELLASLRRHDLLQR
notes: range 1-78

binding result (T7-FLAME-2): no binding
B2: Flag-tagged Fas (receptor, UniProt P25445 26-335, looked up, not shown: small tags and cut ends)
chain: QVTDINSKGLELRKTVTTVETQNLEGLHHDGQFCHKPCPPGERKARDCTVNGDEPDCVPCQEGKEYTDKAHFSSKCRRCRLCDEGHGLEVEINCTRTQNTKCRCKPNFFCNSTVCEHCDPCTKCEHGIIKECTLTSNTKCKEEGSRSNLGWLCLLLLPIPLIVWVKRKEVQKTCRKHRKENQGSHESPTLNPETVAINLSDVDLSKYITTIAGVMTLSQVKGFVRKNGVNEAKIDEIKNDNVQDTAEQKVQLLRNWHQLHGKKEAYDTLIKDLKKANLCTLAEKIQTIILKDITSDSENSNFRNEIQSLV
notes: Expressed in 293T cells and immunoprecipitated with the anti-Flag antibody
